Results from US20180343839A1 (BROAD INSTITUTE, published 2018).

Target: RAB28 (human, UniProt P51157 2-218)
Test: CRBN interaction study (HA-CRBN immunoprecipitation, SILAC MS); assay not given

binding result: no binding
B1: HA-CRBN (hemagglutinin (HA)-tagged human CRBN) (other)
chain: MAGEGDQQDAAHNMGNHLPLLPESEEEDEMEVEDQDSKEAKKPNIINFDTSLPTSHTYLGADMEEFHGRTLHDDDSCQVIPVLPQVMMILIPGQTLPLQLFHPQEVSMVRNLIQKDRTFAVLAYSNVQEREAQFGTTAEIYAYREEQDFGIEIVKVKAIGRQRFKVLELRTQSDGIQQAKVQILPECVLPSTMSAVQLESLNKCQIFPSKPVSREDQCSYKWWQKYQKRKFHCANLTSWPRWLYSLYDAETLMDRIKKQLREWDENLKDDSLPSNPIDFSYRVAACLPIDDVLRIQLLKIGSAIQRLRCELDIMNKCTSLCCKQCQETEITTKNEIFSLSLCGPMAAYVNPHGYVHETLTVYKACNLNLIGRPSTEHSWFPGYAWTVAQCKICASHIGWKFTATKKDMSPQKFWGLTRSALLPTIPDTEDEISPDKVILCL
notes: the clone used (Broad ORF007943.1_s300c1); its numbering fits V387, Y383 and W385 as printed; also called HA-tagged CRBN; HA-CBRN; not shown: HA tag
